Experimental findings from patent US20230365670A1 (SCOUT BIO, published 2023) are described below.

The target of assay [1] is T1, mouse (murine) NGF (mouse (murine), UniProt P01139 122-241, limits assumed).
T1 construct: also called muNGF
In words: ELISA, plates coated with 0.1 µg/ml muNGF, antibody at 100 to 1.56 ng/ml for the standard curve, goat anti-canine IgG-HRP detection. Here is the method:
Pharmacokinetic (PK) studies were conducted in healthy dogs. Four animals were administered purified ca_αD11_HCCDR2(LN) subcutaneously (SC) at 1.0 mg/kg body weight on Day 0 and Day 28 of the study. The ca_αD11_HCCDR2(LN) antibody carries the same CDR sequences as described in Tables 3 and 4, below. Serum concentrations of ca_αD11_HCCDR2(LN) were assessed over 56 days using an NGF-binding ELISA, as detailed below. Pharmacokinetic parameters were determined using PKSolver software (Zhang Y et al. Computer Methods and Programs in Biomedicine. 2010; 99(3):306-314). The emergence of anti-drug antibodies was assessed at Days 28 and 56 using a bridging electrochemiluminescence (ECL) assay, as detailed below.
The concentration of ca_αD11_HCCDR2(LN) in dog serum was determined using an NGF-binding ELISA. Briefly, ELISA plates were coated with 0.1 μg/ml murine NGF (muNGF) and blocked with PBS/0.05% Tween 20/1% BSA. muNGF coated wells were incubated for 1 hour at room temperature with serum diluted in PBS/0.05% Tween 20/1% BSA (100 μl/well). Antibody concentrations ranging from 100 ng/ml to 1.56 ng/ml were used to establish a standard curve. After washing, the plates were incubated with a 1/10,000 dilution of goat anti-canine IgG-HRP in PBS/0.05% Tween 20/1% BSA. […] Development was stopped by the addition of 2M H₂SO₄ and absorbance read at 450 nm and background was subtracted.

For assay [2], the target named is T1, mouse (murine) NGF. In words: ELISA, plates coated with 0.1 µg/ml muNGF, antibody at 100 to 1.56 ng/ml for the binding curve, goat anti-feline IgG-HRP detection. As to the method:
Pharmacokinetic (PK) studies were conducted in healthy cats. Four animals were administered each of the felinized anti-NGF antibodies (fe_αD11, fe_αD11+HCCDR1(F/L) and fe_αD11+HCCDR2(LN)) subcutaneously (s.c.) at 2.0 mg/kg on Days 0, 21, 42 and 63. Serum concentrations of the antibodies were assessed over 91 days. The concentration of each antibody in the serum was determined using an NGF-binding ELISA. Briefly, ELISA plates were coated with 0.1 μg/ml mouse (murine) NGF (muNGF) and blocked with PBS/0.05% Tween 20/1% BSA. muNGF-coated wells were then incubated for 1 hour at room temperature with antibody preparations, diluted in PBS/0.05% Tween 20/1% BSA (100 μl/well). Antibody concentrations ranging from 100 ng/ml to 1.56 ng/ml were used to establish a binding curve. After washing, the plates were incubated with a 1/5,000 dilution of goat anti-feline IgG-HRP in PBS/0.05% Tween 20/1% BSA. Plates were washed with PBS/0.05% Tween 20 and developed by the addition of TMB substrate. Development was stopped by the addition of 2M H₂SO₄, absorbance read at 450 nm and background values were subtracted from the absorbance readings. The non-compartmental pharmacokinetic parameters of the three felinized anti-NGF antibodies post-dose 1 and 4 were calculated using PKsolver. software.

T1 sequence (P01139 122-241 limits assumed): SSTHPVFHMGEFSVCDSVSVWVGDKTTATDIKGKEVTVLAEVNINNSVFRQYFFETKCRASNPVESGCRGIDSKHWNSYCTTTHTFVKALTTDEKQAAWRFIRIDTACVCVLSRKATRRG

B1: ca_αD11_HCCDR2(L/V) (caninized anti-NGF antibody) (antibody, V domains shown)
VH: EVTLQESGPGLVKPSQTLSLTCVVSGFSLTNNNVNWVRQRPGRGLEWMGGVWAGGATDYNSAVKSRISITRDTAKNQVSLQLSSMTTEDTAVYYCARDGGYSSSTLYAMDAWGQGTLVTVSS
VL: EIVMTQSPASLSLSQEEKVTITCRASEDIYNALAWYQQKPGQAPKLLIYNTDTLHTGVPSRFSGSGSGTDYSFTISSLEPEDVAVYFCQHYFHYPRTFGAGTKVELK
notes: The antibody was detected with goat anti-canine IgG-HRP; also called ca_αD11_HCCDR2(LN); CaNGF
As for B1, the binding result in assay [1] was “binds”.

B2: fe_αD11_HCCDR1(F/L) (felinized anti-NGF monoclonal antibody, F to L at position 2 of heavy chain CDR1) (antibody, V domains shown)
VH: QVQLMESGADLVQPSESLRLTCVASGLSLTNNNVNWVRQAPGKGLEWMGGVWAGGATDYNSALKSRLTITRDTSKNTVFLQMHSLQSEDTATYYCARDGGYSSSTLYAMDAWGQGTTVTVSA
VL: DIEMTQSPLSLSATPGETVSISCRASEDIYNALAWYLQKPGRSPRLLIYNTDTLHTGVPDRFSGSGSGTDFTLKISRVQTEDVGVYFCQHYFHYPRTFGQGTKLELKR
notes: also called fe1_αD11_HCCDR1(F/L)
In the case of B2, in assay [2], the binding result was “binds”.

B3: fe_αD11 (felinized anti-NGF monoclonal antibody with the CDR sequences of rat αD11) (antibody, V domains shown)
VH: QVQLVESGAELVQPGESLRLTCAASGFSLTNNNVNWVRQAPGKGLEWMGGVWAGGATDYNSALKSRLTITRDTSKNTVFLQMHSLQSEDTATYYCARDGGYSSSTLYAMDAWGQGTTVTVSA
VL: DIEMTQSPLSLSVTPGESVSISCRASEDIYNALAWYLQKPGRSPRLLIYNTDTLHTGVPDRFSGSGSGTDFTLKISRVQTEDVGVYFCQHYFHYPRTFGQGTKLELKR
notes: also called fe1_αD11
For B3, the binding result in assay [2] is listed as “binds”.

B4: fe_αD11_HCCDR2(L/V) (felinized anti-NGF monoclonal antibody, L to V at position 14 of heavy chain CDR2) (antibody, V domains shown)
VH: QVQLVESGGDLVQPGGSLRLTCVASGFSLTNNNVNWVRQAPGKGLEWMGGVWAGGATDYNSAVKSRLTITRDTSKNTVFLQMHSLQSEDTATYYCARDGGYSSSTLYAMDAWGQGTTVTVSA
VL: DIEMTQSPLSLSATPGETVSISCRASEDIYNALAWYLQKPGRSPRLLIYNTDTLHTGVPDRFSGSGSGTDFTLKISRVQTEDVGVYFCQHYFHYPRTFGQGTKLELKR
notes: also called fe_αD11+HCCDR2(LN); fe_αD11_HCCDR2(LN)
Turning to B4, the binding result in assay [2] was “binds”.
